# Earlier results as cited in patent US11530434B2, “Cell mass evaluation method and device for analyzing state of cell mass” (HAMAMATSU PHOTONICS K.K., priority 2017, dated 2022).
# B1: TGF-β2: reagent “TGF-β2” whose addition acts on the cell morphology (reported in Non-Patent Document 3) (protein, UniProt P61812 303-414, looked up)
# Transforming growth factor …: ALDAAYCFRNVQDNCCLRPLYIDFKRDLGWKWIHEPKGYNANFCAGACPYLWSSDTQHSRVLSLYNTINPEASASPCCVSQDLEPLTILYYIGKTPKIEQLSNMIVKSCKCS
# Tested on: cell morphology
# Settings: compared to the control state
molecule,measurement,value
B1,change of cell shape on addition of the reagent,makes the cell shape elongated
